From PMC9192595, “Dynamic interaction of BRCA2 with telomeric G-quadruplexes underlies telomere replication homeostasis” come the findings set out here.

Data set [1] addresses T1, GST-B2-7 (human, UniProt P51587 2438-2824).
T1 sequence: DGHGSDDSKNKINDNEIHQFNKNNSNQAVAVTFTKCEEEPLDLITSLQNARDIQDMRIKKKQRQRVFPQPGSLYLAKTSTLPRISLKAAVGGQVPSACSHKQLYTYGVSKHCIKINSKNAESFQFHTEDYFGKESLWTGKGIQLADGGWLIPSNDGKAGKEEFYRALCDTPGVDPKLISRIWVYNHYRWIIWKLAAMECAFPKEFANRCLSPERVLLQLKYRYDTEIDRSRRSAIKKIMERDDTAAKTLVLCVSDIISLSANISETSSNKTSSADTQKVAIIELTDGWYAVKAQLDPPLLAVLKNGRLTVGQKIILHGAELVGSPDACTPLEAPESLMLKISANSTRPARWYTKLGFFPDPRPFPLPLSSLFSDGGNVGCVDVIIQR
Kind of data set: EMSA; 150 mM KCl; EMSA: 10 nM probe, 50 mM Tris-HCl pH 7.5, 100 mM KCl, 2 mM b-ME, 10% glycerol, probe pre-incubated 37 C, gel 4 C (RAD51: +1 mM MgCl2, 2 mM ATP); smFRET: 50 mM Tris-HCl pH 7.9, 100 mM KCl, 20 mM NaCl, 1 mM DTT, 0.1 mg/ml BSA, 9% glycerol, 37 C. Conditions: protein: recombinant; tags: GST; label: 32P.

The target in data set [2] is T2, GST-B2-9 (human, UniProt P51587 3189-3418).
T2 sequence: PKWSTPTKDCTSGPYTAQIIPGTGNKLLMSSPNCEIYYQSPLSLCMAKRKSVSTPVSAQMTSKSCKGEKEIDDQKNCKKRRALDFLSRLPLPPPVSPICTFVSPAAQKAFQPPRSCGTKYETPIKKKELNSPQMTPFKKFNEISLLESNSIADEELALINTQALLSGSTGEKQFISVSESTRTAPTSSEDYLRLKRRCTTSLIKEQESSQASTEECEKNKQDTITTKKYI
Described as above. The settings on record: protein: recombinant; tags: GST; label: 32P.

For data set [3], the target named is T3, GST-B2-8 (human, UniProt P51587 2780-3197).
T3 sequence: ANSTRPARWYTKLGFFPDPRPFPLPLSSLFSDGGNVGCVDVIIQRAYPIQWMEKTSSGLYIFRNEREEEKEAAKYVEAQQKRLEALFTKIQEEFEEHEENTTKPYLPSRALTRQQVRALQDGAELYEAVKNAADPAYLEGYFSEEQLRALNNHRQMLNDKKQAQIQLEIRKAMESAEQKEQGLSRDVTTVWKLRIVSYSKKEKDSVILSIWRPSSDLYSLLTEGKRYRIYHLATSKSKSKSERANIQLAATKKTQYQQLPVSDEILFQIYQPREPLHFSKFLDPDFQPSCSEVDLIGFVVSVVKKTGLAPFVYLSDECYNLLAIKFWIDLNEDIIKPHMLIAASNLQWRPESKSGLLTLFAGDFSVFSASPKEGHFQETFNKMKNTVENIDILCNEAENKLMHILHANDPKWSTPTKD
The description is as above. Conditions: protein: recombinant; tags: GST; label: 32P.

Data set [4] concerns the target T4, BRCA2OB (human, UniProt P51587 2665-3197).
T4 sequence: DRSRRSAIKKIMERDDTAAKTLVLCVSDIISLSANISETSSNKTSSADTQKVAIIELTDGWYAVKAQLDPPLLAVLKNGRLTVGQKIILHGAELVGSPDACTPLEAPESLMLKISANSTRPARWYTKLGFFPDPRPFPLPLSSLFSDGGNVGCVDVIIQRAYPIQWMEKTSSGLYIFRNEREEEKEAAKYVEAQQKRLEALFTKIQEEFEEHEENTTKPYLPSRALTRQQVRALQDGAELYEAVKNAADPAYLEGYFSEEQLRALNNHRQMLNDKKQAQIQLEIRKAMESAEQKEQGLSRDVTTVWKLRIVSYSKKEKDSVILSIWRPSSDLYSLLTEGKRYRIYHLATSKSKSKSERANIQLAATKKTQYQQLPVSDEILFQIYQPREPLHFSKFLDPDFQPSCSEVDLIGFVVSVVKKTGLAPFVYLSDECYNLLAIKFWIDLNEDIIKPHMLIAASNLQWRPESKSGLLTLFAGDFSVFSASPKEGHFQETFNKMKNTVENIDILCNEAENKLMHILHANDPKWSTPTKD
Kind of data set: EMSA; 100 mM KCl; EMSA: 10 nM probe, 50 mM Tris-HCl pH 7.5, 100 mM KCl, 2 mM b-ME, 10% glycerol, probe pre-incubated 37 C, gel 4 C (RAD51: +1 mM MgCl2, 2 mM ATP); smFRET: 50 mM Tris-HCl pH 7.9, 100 mM KCl, 20 mM NaCl, 1 mM DTT, 0.1 mg/ml BSA, 9% glycerol, 37 C. Conditions: protein: recombinant, tags: N-MBP, C-6xHis, label: 5' 32P.

For data set [5], the target named is T4, BRCA2OB. Kind of data set: smFRET; 0.1 and 1 uM BRCA2OB; EMSA: 10 nM probe, 50 mM Tris-HCl pH 7.5, 100 mM KCl, 2 mM b-ME, 10% glycerol, probe pre-incubated 37 C, gel 4 C (RAD51: +1 mM MgCl2, 2 mM ATP); smFRET: 50 mM Tris-HCl pH 7.9, 100 mM KCl, 20 mM NaCl, 1 mM DTT, 0.1 mg/ml BSA, 9% glycerol, 37 C. The settings on record: protein: recombinant, tags: N-MBP, C-6xHis, label: 3' Cy3, stem 5' Cy5, 3' biotin.

In data set [6] the target is T4, BRCA2OB. Kind of data set: EMSA; EMSA: 10 nM probe, 50 mM Tris-HCl pH 7.5, 100 mM KCl, 2 mM b-ME, 10% glycerol, probe pre-incubated 37 C, gel 4 C (RAD51: +1 mM MgCl2, 2 mM ATP); smFRET: 50 mM Tris-HCl pH 7.9, 100 mM KCl, 20 mM NaCl, 1 mM DTT, 0.1 mg/ml BSA, 9% glycerol, 37 C. The settings on record: protein: recombinant; tags: N-MBP, C-6xHis; label: 5' 32P.
The target of data set [7] is T4, BRCA2OB. Kind of data set: smFRET; 1 uM BRCA2OB; EMSA: 10 nM probe, 50 mM Tris-HCl pH 7.5, 100 mM KCl, 2 mM b-ME, 10% glycerol, probe pre-incubated 37 C, gel 4 C (RAD51: +1 mM MgCl2, 2 mM ATP); smFRET: 50 mM Tris-HCl pH 7.9, 100 mM KCl, 20 mM NaCl, 1 mM DTT, 0.1 mg/ml BSA, 9% glycerol, 37 C. The settings on record: protein: recombinant; tags: N-MBP, C-6xHis; label: 3' Cy3; stem 5' Cy5, 3' biotin.

Where [8] appears, read: 29 bp stem with 3' G4 overhang 30 nt.

Residue numbers refer to the chain shown, from its start.

B1: telomeric C-rich strand (40 nt) (ssDNA)
DNA: GAATTCACCCCTAACCCTAACCCTAACCCTAACCGCGGGC
For the molecule B1, the binding result in data set [1], in data set [2] and in data set [3] was “no binding” each time.

B2: TelG3 (ssDNA)
DNA: GGTTAGGGTTAGGGTTAG
In the case of B2, in data set [4], the binding result was “no binding”.

B3: telomeric G-rich strand (40 nt) (ssDNA)
DNA: GCCCGCGGTTAGGGTTAGGGTTAGGGTTAGGGGTGAATTC
Turning to B3, the binding result is “no binding” in data set [1], “no binding” in data set [2] and “binds” in data set [3].

B4: TelG5TT smFRET (mixed)
DNA 1: GCGTGGCACCGGTAATAGGAGATAGGAGAGGTTTGGGTTGGGTTGGGTTGGGTTTG
DNA 2: TCTCCTATCTCCTATTACCGGTGCCACGC
modifications: 3' amino; stem 5' amino
Consider B4, for which the binding result in data set [5] (29 bp stem with 3' G4 overhang 27 nt) was “binds”.

B5: TelG-CTA (structured_DNA)
DNA: GCTAGGGCTAGGGCTAGGGCTAGGGCTAG
For B5, the binding result in data set [6] is given as “no binding”.

B6: TelG5:TelC5 (dsDNA)
DNA 1: GGTTAGGGTTAGGGTTAGGGTTAGGGTTAG
DNA 2: CTAACCCTAACCCTAACCCTAACCCTAACC
As to B6, in data set [4] (blunt), the binding result is listed as “no binding”.

B7: TelG6 (structured_DNA)
DNA: GGTTAGGGTTAGGGTTAGGGTTAGGGTTAGGGTTAG
For B7, the binding result in data set [4] (intramolecular G4) is “binds”.

B8: TelG5GAG (ssDNA)
DNA: AGTTAGAGTTAGAGTTAGAGTTAGAGTTAG
Take B8: in data set [4] (unfolded), the binding result is on record as “no binding”.

B9: TelC5 (ssDNA)
DNA: B6 DNA 2
With B9, the binding result in data set [4] was “no binding”.

B10: TelG5 smFRET (mixed)
DNA 1: GCGTGGCACCGGTAATAGGAGATAGGAGAGGTTAGGGTTAGGGTTAGGGTTAGGGTTAG
DNA 2: TCTCCTATCTCCTATTACCGGTGCCACGC
modifications: 3' amino; stem 5' amino
As to B10, the binding result in data set [5] (setting [8]) is “binds”.

B11: TelG5TTT smFRET (mixed)
DNA 1: B10 DNA 1 with A34T, A40T, A46T, A52T, A58T
DNA 2: TCTCCTATCTCCTATTACCGGTGCCACGC
modifications: 3' amino; stem 5' amino
B11: the binding result in data set [5] (setting [8]) is given as “binds”.

B12: TelG5CTA smFRET (mixed)
DNA 1: B10 DNA 1 with T32C, T38C, T44C, T50C, T56C
DNA 2: TCTCCTATCTCCTATTACCGGTGCCACGC
modifications: 3' amino; stem 5' amino
On to B12, for which the binding result in data set [7] was “no binding”.
